Reference: the supplement of paper PMC7877785
± gives the uncertainty stated by the source.

Assay: self-splicing fitness, log relative to wild type (ln ratio); higher = more splicing; Tetrahymena group I intron in knt gene, E. coli kanamycin selection, DiMSum; sequences stand for … in CUCUCU…GGAGGGAAAAGUUAUCAGGCAUGCACCUGGUAGCUAGUCUUUAAACCAAUAGAUUGCAUCGGUUUAAAAGGCAAGACCGUCAAAUUGCGGGAAAGGGGUCAACAGCCGUUCAGUACCAAGUCUCAGGGGAAACUUUGAGAUGGCCUUGCAAAGGGUAUGGUAAUAAGCUGACGGACAUGGUCCUAACCACGCAGCCAAGUCCUAAGUCAACAGAUCUUCUGUUGAUAUGGAUGCAGUUCACAGACUAAAUGUCGGUCGGGGAAGAUGUAUUCUUCUCAUAAGAUAUAGUCGGACCUCUCCUUAAUGGGAGCUAGCGGAUGAAGUGAUGCAACACUGGAGCCGCUGGGAACUAAUUUGUAUGCGAAAGUAUAUUGAUUAGUUUUGGAGUACUCGUGGUCG
Procedure, shortened: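 Six replicate transformations of E. coli BL21(DE3) with a pET-22b(+) library were grown overnight at 37°C or 30°C. The library randomised all eight P1ex-region intron nucleotides, the intron lying in the knt kanamycin-resistance gene, and plates were LB agar with or without 25 μg/mL kanamycin plus 100 μg/mL carbenicillin, 50 μM IPTG and 0.2% rhamnose. Pooled colonies were amplicon-sequenced on an Illumina HiSeq 2500, and fitness is the DiMSum error-weighted combination of wild-type-normalised replicate fold changes, kanamycin versus none.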

Sequence	self-splicing fitness (ln) (30 °C)	self-splicing fitness (ln) (37 °C)
CACGAGCAAUAUUACGCUUG	-3.27 ± 0.34	-2.03 ± 0.47
CACGAGCAAUAUUACGGAUC		-2.84 ± 0.3
CACGAGCAAUAUUACGGCUU	-3.77 ± 0.24	-3.16 ± 0.29
CACGAGCAAUAUUACGGGAA	-2.95 ± 0.2	-3.1 ± 0.29
CACGAGCAAUAUUACGGUAG	-2.41 ± 0.12	-2.18 ± 0.14
CACGAGCAAUAUUACGGUCG	-1.72 ± 0.14	-0.457 ± 0.14
CACGAGCAAUAUUACGGUGG	-2.15 ± 0.11	-2.33 ± 0.15
CACGAGCAAUAUUACGGUUC		-1.98 ± 0.34
CACGAGCAAUAUUACGUAGU	-3.22 ± 0.17	-2.73 ± 0.26
CACGAGCAAUAUUACGUAUG	-3.54 ± 0.14	-2.79 ± 0.16
CACGAGCAAUAUUACGUGAC	-2.72 ± 0.15	-2.44 ± 0.15
CACGAGCAAUAUUACGUGCG	-3.73 ± 0.19	-2.09 ± 0.15
CACGAGCAAUAUUACGUGUC	-3.87 ± 0.2	-2.52 ± 0.14
CACGAGCAAUAUUACGUGUG	-3.48 ± 0.13	-3.21 ± 0.17
CACGAGCAAUAUUACGUUUG	-3.57 ± 0.13	-2.17 ± 0.13
CACUAGCAAUAUUACGAAGU	-2.82 ± 0.21	-3.06 ± 0.29
CACUAGCAAUAUUACGAAUA	-3.16 ± 0.37	-2.33 ± 0.18
CACUAGCAAUAUUACGACCG	0.413 ± 0.1	0.573 ± 0.12
CACUAGCAAUAUUACGAGCU	-3.44 ± 0.18	-2.75 ± 0.17
CACUAGCAAUAUUACGAUGU	-4.05 ± 0.37	-1.63 ± 0.19
CACUAGCAAUAUUACGCCAA	-2.23 ± 0.16	-2.89 ± 0.24
CACUAGCAAUAUUACGCUCC		-1.46 ± 0.2
CACUAGCAAUAUUACGGAAC		-1.93 ± 0.22
CACUAGCAAUAUUACGGAGC	-4.52 ± 0.28	-2.8 ± 0.15
CACUAGCAAUAUUACGGAGG	-2.39 ± 0.1	-0.627 ± 0.1

Sequence	self-splicing fitness (ln) (30 °C)	self-splicing fitness (ln) (37 °C)
CACUAGCAAUAUUACGGCCU	-2.77 ± 0.2	-1.94 ± 0.18
CACUAGCAAUAUUACGGGUA	-0.856 ± 0.057	-0.188 ± 0.064
CACUAGCAAUAUUACGGUUA	-1.99 ± 0.12	-0.466 ± 0.1
CACUAGCAAUAUUACGUCGG	-1.25 ± 0.082	0.0907 ± 0.1
CACUAGCAAUAUUACGUGGU	-3.41 ± 0.15	-2.88 ± 0.17
CACUAGCAAUAUUACGUUAU	-3.42 ± 0.22	-3.52 ± 0.23
CAGAAGCAAUAUUACGAGAU	-3.23 ± 0.17	-2.44 ± 0.23
CAGAAGCAAUAUUACGAGGG	-2.99 ± 0.23	-1.18 ± 0.31
CAGAAGCAAUAUUACGAUAC		-1.81 ± 0.2
CAGAAGCAAUAUUACGAUGU	-3.37 ± 0.23	-1.97 ± 0.2
CAGAAGCAAUAUUACGCACG	-0.596 ± 0.072	-0.261 ± 0.08
CAGAAGCAAUAUUACGCACU	-2.13 ± 0.14	-1.36 ± 0.14
CAGAAGCAAUAUUACGCAUG	-3.89 ± 0.21	-2.44 ± 0.17
CAGAAGCAAUAUUACGCGCA	-1.55 ± 0.17	-0.337 ± 0.12
CAGAAGCAAUAUUACGCUCA	-1.61 ± 0.11	0.0994 ± 0.11
CAGAAGCAAUAUUACGCUCG	-1.31 ± 0.11	-0.994 ± 0.15
CAGAAGCAAUAUUACGGAAG	-1.65 ± 0.077	-1.35 ± 0.095
CAGAAGCAAUAUUACGGAGG	-1.91 ± 0.099	-1.2 ± 0.1
CAGAAGCAAUAUUACGGGAA	-3.21 ± 0.23	-1.37 ± 0.25
CAGAAGCAAUAUUACGGGCG	-0.315 ± 0.089	-0.0188 ± 0.11
CAGAAGCAAUAUUACGGGUA	-2.8 ± 0.16	-2.25 ± 0.13
CAGAAGCAAUAUUACGUAGU	-4.18 ± 0.24	-1.97 ± 0.17
CAGAAGCAAUAUUACGUCAU		-2.9 ± 0.25
CAGAAGCAAUAUUACGUCGU	-4.88 ± 0.36	-1.3 ± 0.14
CAGAAGCAAUAUUACGUGCC	-4.04 ± 0.28	-2.74 ± 0.3

Sequence	self-splicing fitness (ln) (30 °C)	self-splicing fitness (ln) (37 °C)
CAGAAGCAAUAUUACGUGUC	-3.9 ± 0.25	-4 ± 0.27
CAGCAGCAAUAUUACGAAGC	-4.28 ± 0.31	
CAGCAGCAAUAUUACGACAU	-3.505 ± 0.021	-1.82 ± 0.034
CAGCAGCAAUAUUACGAUAC	-3.52 ± 0.33	-3.45 ± 0.4
CAGCAGCAAUAUUACGCAAG	-1.53 ± 0.092	-0.332 ± 0.11
CAGCAGCAAUAUUACGCAAU	-3.18 ± 0.24	-1.29 ± 0.15
CAGCAGCAAUAUUACGCAGC	-4.33 ± 0.32	-2.3 ± 0.28
CAGCAGCAAUAUUACGCCGA	-1.81 ± 0.12	-0.864 ± 0.091
CAGCAGCAAUAUUACGCGCU	-3.39 ± 0.21	-2.45 ± 0.16
CAGCAGCAAUAUUACGCGGG	-2.78 ± 0.17	-2.31 ± 0.2
CAGCAGCAAUAUUACGGACC		-1.84 ± 0.34
CAGCAGCAAUAUUACGGCAA	-1.35 ± 0.1	-1.45 ± 0.097
CAGCAGCAAUAUUACGGCGC	-2.93 ± 0.35	-1.51 ± 0.2
CAGCAGCAAUAUUACGGCUU	-0.00706 ± 0.07	0.453 ± 0.088
CAGCAGCAAUAUUACGGGAA	-3.17 ± 0.33	-1.58 ± 0.16
CAGCAGCAAUAUUACGGUGC	-2.99 ± 0.17	-2.1 ± 0.28
CAGCAGCAAUAUUACGUAAU	-2.34 ± 0.16	-1.91 ± 0.15
CAGCAGCAAUAUUACGUACA	-2.34 ± 0.15	-1.97 ± 0.16
CAGCAGCAAUAUUACGUCGU	-3.42 ± 0.18	-0.9 ± 0.09
CAGCAGCAAUAUUACGUGGC	-3.81 ± 0.25	-1.67 ± 0.23
CAGCAGCAAUAUUACGUUAA	-3.01 ± 0.11	-1.66 ± 0.1
CAGCAGCAAUAUUACGUUAC		-2.34 ± 0.27
CAGCAGCAAUAUUACGUUAU	-3.77 ± 0.19	-2.93 ± 0.15
CAGCAGCAAUAUUACGUUGU	-2.88 ± 0.1	-1.52 ± 0.13
CAGGAGCAAUAUUACGACUA	0.224 ± 0.31	-0.98 ± 0.34

Sequence	self-splicing fitness (ln) (30 °C)	self-splicing fitness (ln) (37 °C)
CAGGAGCAAUAUUACGAUUA	-3.38 ± 0.31	-2.37 ± 0.3
CAGGAGCAAUAUUACGCAGC	-2.14 ± 0.18	-2.55 ± 0.33
CAGGAGCAAUAUUACGCUUG	-3.59 ± 0.21	-2.48 ± 0.3
CAGGAGCAAUAUUACGGCAG	-1.41 ± 0.083	-1.27 ± 0.09
CAGGAGCAAUAUUACGGCUU	-3.93 ± 0.23	-2.15 ± 0.21
CAGGAGCAAUAUUACGGGUC	-2.84 ± 0.19	-2.92 ± 0.21
CAGGAGCAAUAUUACGGUAU	-3.42 ± 0.15	-2.86 ± 0.16
CAGGAGCAAUAUUACGUACC	-2.36 ± 0.45	
CAGGAGCAAUAUUACGUCAC		-1.92 ± 0.44
CAGGAGCAAUAUUACGUCCA	-2.02 ± 0.16	-1.08 ± 0.24
CAGGAGCAAUAUUACGUGAA	-3.52 ± 0.38	-3.2 ± 0.43
CAGGAGCAAUAUUACGUGAU	-4.53 ± 0.46	-1.95 ± 0.23
CAGGAGCAAUAUUACGUGCA	-3.17 ± 0.21	-2.6 ± 0.34
CAGUAGCAAUAUUACGAAAU	-2.86 ± 0.15	-2.54 ± 0.21
CAGUAGCAAUAUUACGACCG	0.558 ± 0.16	-0.0835 ± 0.2
CAGUAGCAAUAUUACGACGA	-1.39 ± 0.13	-0.446 ± 0.13
CAGUAGCAAUAUUACGAGAU	-4.27 ± 0.46	-1.9 ± 0.27
CAGUAGCAAUAUUACGAUUC	-3.11 ± 0.22	-2.27 ± 0.26
CAGUAGCAAUAUUACGCACC	-2.03 ± 0.26	-1.61 ± 0.43
CAGUAGCAAUAUUACGCAGU	-3.52 ± 0.34	-2.33 ± 0.22
CAGUAGCAAUAUUACGCCCU		-1.3 ± 0.32
CAGUAGCAAUAUUACGGAAU	-3.7 ± 0.27	-2.55 ± 0.18
CAGUAGCAAUAUUACGGCAU	-4.45 ± 0.27	-1.78 ± 0.18
CAGUAGCAAUAUUACGGCCA	-1.17 ± 0.16	-1.11 ± 0.21
